Results taken from paper PMC10397247.
Values belong to the binder of their own block, whether it stands above or below them.

Experiments:
Test in all cases: two-hybrid library CCNG1;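 further: natural log of median RNA to DNA barcode read ratio; higher means stronger binding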
4H3277-bH = target: T1, 4H3277-bH
T1 chain: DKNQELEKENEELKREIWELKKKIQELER

4H741-bH = target: T2, 4H741-bH
T2 chain: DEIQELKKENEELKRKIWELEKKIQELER

4H2162-bH = target: T3, 4H2162-bH
T3 chain: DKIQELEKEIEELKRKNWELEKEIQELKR

4H349-bH = target: T4, 4H349-bH
T4 chain: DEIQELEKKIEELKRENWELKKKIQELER

4H2692-bH = target: T5, 4H2692-bH
T5 chain: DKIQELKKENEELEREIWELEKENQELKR

4H56-bH = target: T6, 4H56-bH
T6 chain: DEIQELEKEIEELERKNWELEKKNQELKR

4H796-bH = target: T7, 4H796-bH
T7 chain: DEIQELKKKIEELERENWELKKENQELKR

4H2859-bH = target: T8, 4H2859-bH
T8 chain: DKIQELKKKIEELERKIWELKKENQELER

4H348-bH = target: T9, 4H348-bH
T9 chain: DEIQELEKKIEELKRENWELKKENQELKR

4H2585-bH = target: T10, 4H2585-bH
T10 chain: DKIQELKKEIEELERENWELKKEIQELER

4H2760-bH = target: T11, 4H2760-bH
T11 chain: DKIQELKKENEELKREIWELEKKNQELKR

4H3057-bH = target: T12, 4H3057-bH
T12 chain: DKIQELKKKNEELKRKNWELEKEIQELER

4H949-bH = target: T13, 4H949-bH
T13 chain: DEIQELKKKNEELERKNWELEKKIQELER

4H477-bH = target: T14, 4H477-bH
T14 chain: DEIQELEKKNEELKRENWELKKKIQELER

4H3381-bH = target: T15, 4H3381-bH
T15 chain: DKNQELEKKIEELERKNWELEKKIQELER

4H3364-bH = target: T16, 4H3364-bH
T16 chain: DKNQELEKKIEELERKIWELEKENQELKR

4H264-bH = target: T17, 4H264-bH
T17 chain: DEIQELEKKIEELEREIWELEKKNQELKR

4H3297-bH = target: T18, 4H3297-bH
T18 chain: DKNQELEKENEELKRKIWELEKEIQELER

4H4001-bN = target: T19, 4H4001-bN
T19 chain: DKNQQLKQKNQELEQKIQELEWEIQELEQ

4H319-bH = target: T20, 4H319-bH
T20 chain: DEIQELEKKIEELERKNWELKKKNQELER

4H730-bH = target: T21, 4H730-bH
T21 chain: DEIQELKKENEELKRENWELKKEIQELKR

4H2915-bH = target: T22, 4H2915-bH
T22 chain: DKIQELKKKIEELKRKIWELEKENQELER

4H2503-bH = target: T23, 4H2503-bH
T23 chain: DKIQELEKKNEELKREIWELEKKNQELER

4H2717-bH = target: T24, 4H2717-bH
T24 chain: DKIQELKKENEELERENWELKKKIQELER

4H235-bH = target: T25, 4H235-bH
T25 chain: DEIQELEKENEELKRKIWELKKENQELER

4H40-bH = target: T26, 4H40-bH
T26 chain: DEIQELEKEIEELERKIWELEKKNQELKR

4H2839-bH = target: T27, 4H2839-bH
T27 chain: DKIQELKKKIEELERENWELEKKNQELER

4H2438-bH = target: T28, 4H2438-bH
T28 chain: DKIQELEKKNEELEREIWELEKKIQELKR

4H492-bH = target: T29, 4H492-bH
T29 chain: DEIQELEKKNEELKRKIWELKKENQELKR

4H2233-bH = target: T30, 4H2233-bH
T30 chain: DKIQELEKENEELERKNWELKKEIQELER

4H2588-bH = target: T31, 4H2588-bH
T31 chain: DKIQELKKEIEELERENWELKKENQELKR

4H2253-bH = target: T32, 4H2253-bH
T32 chain: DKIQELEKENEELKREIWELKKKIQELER

4H2931-bH = target: T33, 4H2931-bH
T33 chain: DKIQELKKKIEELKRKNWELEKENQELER

4H2444-bH = target: T34, 4H2444-bH
T34 chain: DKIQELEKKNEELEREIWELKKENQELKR

4H3041-bH = target: T35, 4H3041-bH
T35 chain: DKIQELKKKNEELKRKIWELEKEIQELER

4H2518-bH = target: T36, 4H2518-bH
T36 chain: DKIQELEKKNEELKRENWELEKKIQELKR

4H2143-bH = target: T37, 4H2143-bH
T37 chain: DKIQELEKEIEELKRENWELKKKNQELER

4H2473-bH = target: T38, 4H2473-bH
T38 chain: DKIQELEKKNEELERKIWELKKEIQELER

4H754-bA = target: T39, 4H754-bA
T39 chain: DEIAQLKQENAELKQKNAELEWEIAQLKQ

4H932-bH = target: T40, 4H932-bH
T40 chain: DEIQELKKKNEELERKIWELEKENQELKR

4H2223-bH = target: T41, 4H2223-bH
T41 chain: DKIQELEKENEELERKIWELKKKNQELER

4H3129-bA = target: T42, 4H3129-bA
T42 chain: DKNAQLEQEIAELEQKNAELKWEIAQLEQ

4H850-bA = target: T43, 4H850-bA
T43 chain: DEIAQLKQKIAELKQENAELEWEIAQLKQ

4H906-bA = target: T44, 4H906-bA
T44 chain: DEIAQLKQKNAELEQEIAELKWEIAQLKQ

4H3638-bA = target: T45, 4H3638-bA
T45 chain: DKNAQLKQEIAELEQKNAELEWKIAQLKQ

4H1629-bA = target: T46, 4H1629-bA
T46 chain: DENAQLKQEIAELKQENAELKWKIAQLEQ

4H1804-bA = target: T47, 4H1804-bA
T47 chain: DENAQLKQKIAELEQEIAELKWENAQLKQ

4H3631-bA = target: T48, 4H3631-bA
T48 chain: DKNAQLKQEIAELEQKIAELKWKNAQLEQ

4H3974-bA = target: T49, 4H3974-bA
T49 chain: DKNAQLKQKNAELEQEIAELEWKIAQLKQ

4H1393-bA = target: T50, 4H1393-bA
T50 chain: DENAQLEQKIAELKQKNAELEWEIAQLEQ

4H570-bA = target: T51, 4H570-bA
T51 chain: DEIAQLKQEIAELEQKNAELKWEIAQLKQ

4H3414-bA = target: T52, 4H3414-bA
T52 chain: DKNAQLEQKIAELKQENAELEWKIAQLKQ

4H3172-bA = target: T53, 4H3172-bA
T53 chain: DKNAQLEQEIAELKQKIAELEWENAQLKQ

4H1710-bA = target: T54, 4H1710-bA
T54 chain: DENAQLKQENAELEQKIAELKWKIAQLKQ

4H1985-bA = target: T55, 4H1985-bA
T55 chain: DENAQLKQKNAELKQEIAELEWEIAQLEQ

4H3817-bA = target: T56, 4H3817-bA
T56 chain: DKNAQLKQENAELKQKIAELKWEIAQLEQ

4H1449-bA = target: T57, 4H1449-bA
T57 chain: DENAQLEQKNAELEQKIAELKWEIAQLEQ

4H619-bA = target: T58, 4H619-bA
T58 chain: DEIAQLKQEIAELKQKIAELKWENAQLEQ

4H584-bA = target: T59, 4H584-bA
T59 chain: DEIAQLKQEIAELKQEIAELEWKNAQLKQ

interaction score (4H3277-bH): -0.719
interaction score (4H741-bH): 0.515
interaction score (4H2162-bH): 0.12
interaction score (4H349-bH): -0.148
interaction score (4H2692-bH): -0.348
interaction score (4H56-bH): 0.127
interaction score (4H796-bH): -1.45
interaction score (4H2859-bH): -0.954
interaction score (4H348-bH): 0.059
interaction score (4H2585-bH): -1.12
interaction score (4H2760-bH): -0.0706
interaction score (4H3057-bH): 0.0434
interaction score (4H949-bH): -0.954
interaction score (4H477-bH): -0.0383
interaction score (4H3381-bH): 0.106
interaction score (4H3364-bH): 0.347
interaction score (4H264-bH): 0.605
interaction score (4H3297-bH): -0.15
interaction score (4H4001-bN): -1.45
interaction score (4H319-bH): -1.46
interaction score (4H730-bH): -0.835
interaction score (4H2915-bH): -0.577
interaction score (4H2503-bH): -1.13
interaction score (4H2717-bH): -0.549
interaction score (4H235-bH): -0.618
interaction score (4H40-bH): 1
interaction score (4H2839-bH): 1.24
interaction score (4H2438-bH): -0.916
interaction score (4H492-bH): -0.638
interaction score (4H2233-bH): 0.334
interaction score (4H2588-bH): -0.874
interaction score (4H2253-bH): -1.13
interaction score (4H2931-bH): 0.0986
interaction score (4H2444-bH): -0.824
interaction score (4H3041-bH): -0.203
interaction score (4H2518-bH): 0.15
interaction score (4H2143-bH): 0.693
interaction score (4H2473-bH): -0.279
interaction score (4H754-bA): -0.871
interaction score (4H932-bH): -0.164
interaction score (4H2223-bH): -0.434
Binder: DKIQELEKEIEELKRENWELKKKNQELER [4H2143-bH]

interaction score (4H3129-bA): -0.0989
interaction score (4H850-bA): -0.951
interaction score (4H906-bA): -1.12
interaction score (4H3638-bA): 1.8
interaction score (4H1629-bA): -1.57
interaction score (4H1804-bA): -1.14
interaction score (4H3631-bA): -0.847
interaction score (4H3974-bA): -0.626
interaction score (4H3297-bH): -0.857
interaction score (4H1393-bA): -1.08
interaction score (4H570-bA): -0.941
interaction score (4H3414-bA): 0.166
interaction score (4H3172-bA): -1.3
interaction score (4H1710-bA): -1.72
interaction score (4H1985-bA): -1.7
interaction score (4H3817-bA): -1.23
interaction score (4H1449-bA): -1.31
interaction score (4H619-bA): -1.63
interaction score (4H584-bA): -1.22
interaction score (4H754-bA): -1.58
Binder: DENAQLEQKIAELKQKNAELEWEIAQLEQ [4H1393-bA]
